What was measured:
[1] = molecular target: HCV envelope glycoprotein E2 (in lysate of HCV-infected Huh7.5 cells) (hepatitis C virus (strain not stated)) (UniProt Q99IB8)
[2] = molecular target: HCV envelope glycoprotein E2 (in lysate of HCV-infected Huh7.5 cells) (hepatitis C virus (strain not stated)) (UniProt Q99IB8); remark: listed apart in the source

UniProt Q99IB8, sequence (Q99IB8 384-750): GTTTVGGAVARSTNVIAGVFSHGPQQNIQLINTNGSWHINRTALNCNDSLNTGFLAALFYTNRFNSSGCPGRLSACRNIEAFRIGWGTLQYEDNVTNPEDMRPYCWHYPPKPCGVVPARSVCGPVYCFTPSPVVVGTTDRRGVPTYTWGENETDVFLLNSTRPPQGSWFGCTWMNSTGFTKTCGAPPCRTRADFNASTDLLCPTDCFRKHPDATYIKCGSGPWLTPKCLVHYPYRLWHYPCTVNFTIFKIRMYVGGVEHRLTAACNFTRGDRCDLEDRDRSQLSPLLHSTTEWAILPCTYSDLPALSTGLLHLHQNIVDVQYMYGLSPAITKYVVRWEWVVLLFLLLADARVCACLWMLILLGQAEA

Substance | EC50 for inhibition of HCV JFH-1 (genotype 2a) in the HCVcc full-replication assay in Huh7.5.1 cells (HCV core protein in supernatant) [1] [nM] | EC50 for inhibition of replication of JFH-1 (genotype 2a) HCVcc in Huh7.5.1 cells [2] [nM] | EC50 for inhibition of replication of the J6/JFH-1 HCVcc chimera (structural genes of genotype 2a J6) in Huh7.5.1 cells [2] [nM] | EC50 for inhibition of replication of the TH/JFH-1 HCVcc chimera (structural genes of genotype 1b TH) in Huh7.5.1 cells [2] [nM]
griffithsin (from UniProt P84801 1-121) (natural protein) | 0.4 | 0.3 | 14 | 2.2
scytovirin (from UniProt P86041 1-95) (natural protein) | 16.9 | 3.2 | 50.8 | 57.5
